Experimental data from patent publication US20250333508A1.

Experiments:
[1] = molecular target: human CTLA-4 his tag antigen (human) (UniProt P16410); assay: ELISA on coated human CTLA-4 his tag protein, goat anti-human IgG-Fc HRP; unit from the axis; the isotype curve is flat at OD450 0, so the number comes from a fit of a flat line
[2] = molecular target: murine CTLA-4. his tag protein (murine) (UniProt P09793); assay: ELISA on coated mouse CTLA-4 his tag protein, goat anti-human IgG-Fc HRP; unit from the axis; the isotype curve is flat at OD450 0, so the number comes from a fit of a flat line
Sequence of UniProt P09793 (P09793 36-161 limits assumed): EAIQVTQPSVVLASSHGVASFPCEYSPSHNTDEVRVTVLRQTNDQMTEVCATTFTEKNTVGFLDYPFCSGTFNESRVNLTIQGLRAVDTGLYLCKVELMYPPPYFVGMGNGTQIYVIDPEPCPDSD

[3] = molecular target: cynomolgus monkey CTLA-4. his tag protein (cynomolgus monkey) (UniProt G7PL88); assay: ELISA on coated cynomolgus monkey CTLA-4 his tag protein, goat anti-human IgG-Fc HRP; unit from the axis; the isotype curve is flat at OD450 0, so the number comes from a fit of a flat line
Sequence of UniProt G7PL88 (G7PL88 entry or part of it limits assumed): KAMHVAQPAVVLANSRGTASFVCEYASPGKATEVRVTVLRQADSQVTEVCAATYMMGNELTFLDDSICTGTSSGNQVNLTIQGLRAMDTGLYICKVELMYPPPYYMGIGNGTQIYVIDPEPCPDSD

Measured: EC50

Sequence of UniProt P16410 (P16410 36-161 limits assumed): as the sequence (G7PL88 entry or part of it limits assumed) above, with N14S, T18I, M106L counted along it

Isotype (antibody)
5.74 nM: all assays above
